Data as given in patent US9340588B2, “Peptide secreted by Lactobacillus plantarum with immunomodulating function” (Imperial Innovations Limited, priority 2011, dated 2016).

Tests used:
[1] = system: enriched dendritic cells from human blood (LDCs); experiment: Surface marker expression on blood-enriched dendritic cells (LDCs), flow cytometry; assay type: cell-based; settings: for activation molecule CD83 on DCs / co-stimulating molecule CD40 on DCs / induction of MHC type II molecules (HLA-DR) on DCs: ST peptide 0.1-10 μg/mL or LPS 100 ng/mL, FIG. 5 panel B
Excerpt: (§1) The dendritic cells were obtained from healthy patients who had neither autoimmune diseases, nor inflammatory diseases nor allergies nor malignant tumors. These subjects had given their written consent for their blood to be used for scientific purposes. The peripheral blood mononuclear cells (PBMCs) were isolated by differential centrifugation in Ficoll-Paque Plus (Amersham Biosciences, Chalfont St. Giles, UK). The cellular fraction LDC (low-density cells) was obtained by overnight centrifugation in NycoPrepe™ solution. The cells present in this LDC fraction were HLA-DR positive in 98-100% of cases, with morphological characteristics typical of the DCs (Ng, et al. (2009). A novel population of human CD56+ human leukocyte antigen D-related (HLA-DR+) colonic lamina propria cells is associated with inflammation in ulcerative colitis. Clin. Exp. Immuno1.158, 205-218).
(§2) Half a million LDCs per milliliter were cultured in complete medium (Dutch modified RPMI 1640 (Sigma-Aldrich, Dorset, UK) containing 100 U/mL penicillin/streptomycin, 2 mM L-glutamine, […] gentamicin (Sigma-Aldrich) and fetal bovine serum at 10% (v/v) (TCS cellworks, Buckingham, UK)). These cultures were carried out in the presence of the ST peptide identified as SEQ ID NO: 1 purified at concentrations of 10 μg/mL, 1 μg/mL and 0.1 μg/mL, and of LPS (100 ng/mL) (Sigma-Aldrich, St. Louis, USA) as positive control. The results were compared with parallel cultures without ST peptide identified as SEQ ID NO: 1 nor added LPS, acting as negative controls.
For the various experiments, labeling of the cells with the various antibodies (Table 1) was carried out in PBS supplemented with 1 mM EDTA and sodium azide at 0.02% (w/v) (FACS buffer). Labeling was carried out for 20 minutes in ice, in the dark. The cells were then washed with FACS buffer and were fixed with paraformaldehyde at 1% (v/v) in saline solution, and stored at 4° C. until acquisition of data in the flow cytometer. The negative controls used were isotype-matched antibodies without specificity, labeled with the same fluorochrome, which were obtained from the same company (isotype controls).
(§3) The flow cytometry data were obtained in a FACSCalibur cytometer (BD Biosciences), and the data were analyzed with the WinList 5.0 software (Verity, Me., US). The proportion of samples positive for a particular marker was determined relative to isotype controls. For quantification by histograms, an analysis was performed with the WinList software, in which the histogram of isotype staining was subtracted from the histogram of specific staining using normalized superenhanced Dmax (SED) substraction (Bagwell, C. B. (2005). Hyperlog—a flexible log-like transform for negative, zero, and positive valued data. Cytometry. 64, 34-42).

[2] = system: T lymphocytes stimulated by enriched dendritic cells from blood (LDC); experiment: T lymphocytes stimulated with blood LDCs conditioned with ST peptide: homing markers and cytokines; assay type: cell-based, human
Protocol: (§4) The T lymphocytes were obtained from peripheral blood mononuclear cells (PBMCs). The PBMCs, obtained from freshly drawn blood as described in example 1, were resuspended in MiniMACs buffer (PBS supplemented with bovine serum albumin 0.5% (w/v) and EDTA 2 mM). This suspension was enriched with T cells by removing the CD14 positive, CD19 positive and HLA-DR positive cells with immuno-magnetized beads (Miltenyi Biotech, Bisley, UK) following the manufacturer's instructions. A percentage of T cells of 94.91%±1.06 (mean±standard deviation) was obtained as the mean value of all the extractions/enrichments.
(§5) The T cells were labeled with 5-carboxyfluorescein diacetate succinimidyl ester (CFSE, Invitrogen Ltd, UK) according to the manufacturer's instructions. The T cells thus labeled (4×10^5 cells per well) were incubated for 5 days with DCs at 0, 1, 2 or 3% in microtiter plates with U-shaped bottom. The proliferating T cells were identified and quantified by flow cytometry as those that contained a small amount of CFSE (CFSE^low) (FIG. 8).
The remaining flow cytometry protocols were carried out as described in section 1 of example 1.

[3] = system: dendritic cells from colon mucosa biopsies (intestinal DC); experiment: Intracellular cytokine production in dendritic cells from colon mucosa biopsies; assay type: cell-based, human
Protocol: The DCs were cultured for 4 hours in the presence/absence of monensin. Then they were stained for the surface markers as described above. Next they were fixed with LeucopermA, and permeabilized with LeucopermB before adding the intracellular staining antibodies. After incubation, the DCs were washed in FACS buffer, were fixed and were acquired as described above. The analysis was performed by the SED substraction detailed above, where the histogram of each cytokine of the DCs that had not been incubated with monensin were subtracted from the histogram of each cytokine of the DCs that had been incubated in the […] of monensin. This protocol has been extensively validated by our colleagues (Hart et al., (2005) Characteristics of intestinal dendritic cells in inflammatory bowel diseases. Gastroenterology. 129, 50-65) and makes it possible to quantify changes in the natural production of cytokines by the DCs in the absence of external stimuli such as PMA and/or ionomycin. Using this approach, the intracellular content of each cytokine is not determined. Instead, the changes induced in the production of cytokines in a temporal window of 4 hours (incubation time with monensin) are determined independently of the initial content of cytokines.
Biopsies from the colon were obtained from three healthy patients, who had given their written consent to participate in this study (one woman and two men, age range 30-58 years). These patients had normal intestines, both macroscopically and histologically, and had been examined after reporting changes in intestinal transit or rectal bleeding. Once obtained, the biopsies were collected in complete medium cooled to 4° C. and were processed before the first hour counting from when they were obtained. The biopsies were incubated in Hanks's balanced salt solution (HBSS) (Gibco BRL, Paisley, Scotland, UK) containing 1 mM dithiothreitol (DTT) (Sigma-Aldrich) for 20 minutes. Next, they were incubated in a 1 mM solution of ethylenediaminetetraacetic acid (EDTA) in order to remove both the epithelial cells and the layer of mucus and its associated bacteria. […] The cellular suspensions of mononuclear cells of the lamina propria (200000 cells/mL) were incubated for 4 hours in the presence of the ST peptide identified as SEQ ID NO: 1 purified (10 μg/mL) and in the presence/absence, in its turn, of monensin, with their corresponding negative controls. The DCs of the lamina propria were identified by flow cytometry from the presence of the markers HLA-DR+ and CD3-CD14-CD16-CD19-CD34- (Hart et al. (2005) Characteristics of intestinal dendritic cells in inflammatory bowel diseases. Gastroenterology, 129, 50-65).
The remaining procedures followed in this example were the same as in section 1 of example 1.

[4] = system: T lymphocytes stimulated by enriched dendritic cells from colon biopsies (gut DC); experiment: T lymphocytes stimulated with intestinal mucosa DCs conditioned with ST peptide: homing markers and cytokines; assay type: cell-based, human; settings: T cells stimulated with gut DCs pulsed with ST peptide, vs basal gut DC
Protocol: as §4, §5
This example is the same as the preceding example, except in this case DCs isolated from intestinal mucosa were used.

[5] = system: enriched dendritic cells from human blood (LDCs); experiment: Intracellular cytokine production in blood-enriched dendritic cells (LDCs), monensin 4 h, flow cytometry; assay type: cell-based; settings: ST peptide 0.1-10 μg/mL, 4 h monensin window, FIG. 6
Excerpt: as §1
as §2, with “The results were compared with parallel cultures without ST peptide identified as SEQ ID NO: 1 nor added LPS, acting as negative controls.” left out
as §3
The DCs were cultured for 4 hours in the presence/absence of monensin. […] This protocol has been extensively validated by our colleagues (Hart et al., (2005) Characteristics of intestinal dendritic cells in inflammatory bowel diseases. Gastroenterology. 129, 50-65) and makes it possible to quantify changes in the natural production of cytokines by the DCs in the absence of external stimuli such as PMA and/or ionomycin. Using this approach, the intracellular content of each cytokine is not determined. Instead, the changes induced in the production of cytokines in a temporal window of 4 hours (incubation time with monensin) are determined independently of the initial content of cytokines.

[6] = T cells co-incubated with LDCs pre-incubated with ST peptide, FIGS. 10 and 11
[7] = T cells incubated 5 days with LDCs pre-incubated with ST peptide, FIG. 9
[8] = ST peptide 0.1, 1 or 10 μg/mL, FIG. 5
[9] = colon biopsies of healthy patients, ST peptide 10 μg/mL, 4 h, FIG. 7
[10] = single donor with abnormal IL-12 production, FIG. 14

| Molecule | activation molecule CD83 on DCs [1] | co-stimulating molecule CD40 on DCs [1] | induction of MHC type II molecules (HLA-DR) on DCs [1] | production of IFNγ in T cells [2, 6] | production of IL-17 in T cells [2, 6] | CLA (marker of migration to skin) in T lymphocytes [2, 7] | integrin β7 (marker of migration to intestinal mucosa) in T lymphocytes [2, 7] | marker of migration to intestinal mucosa integrin β7 on DCs [1, 8] | marker of migration to skin CLA on DCs [1, 8] | production of IL-10 in intestinal DCs [3, 9] | production of IL-12 in intestinal DCs [3, 9] | production of IL-10 in colon mucosa DCs of a donor with unusually high IL-12 [3, 10] | production of IL-12 in colon mucosa DCs of a donor with unusually high IL-12 [3, 10] | production of IL-10 in T cells ([4]; FIG. 12) | production of TGFβ in T cells ([4]; FIG. 12) | lymphocytes expressing the marker of migration to skin (CLA) ([4]; FIG. 13) | production of intracellular TGFβ in LDCs [5] | synthesis of IL-6 in LDCs [5] | synthesis of IL-10 in LDCs [5] | synthesis of IL-12 in LDCs [5] |
| --- | --- | --- | --- | --- | --- | --- | --- | --- | --- | --- | --- | --- | --- | --- | --- | --- | --- | --- | --- | --- |
| lipopolysaccharide [LPS, reference compound] | did induce overexpression | did induce overexpression | did induce overexpression |  |  |  |  |  |  |  |  |  |  |  |  |  |  |  |  |  |
| ST peptide: Peptide of 73 amino acids rich in serine and threonine, derived from protein D1 secreted by Lactobacillus plantarum; SEQ ID NO: 1 (protein, listed as Lactobacillus plantarum, (1)..(73) ST peptide sequence) GEVDGDSTTTTSTSTQTTQQTTTTQSSAQTSQTQAQPSQASQTQSSQTQTSKPAAQTTQTSSSTSNYHHHHHH | Nor did the peptide produce changes | Nor did the peptide produce changes | Nor did the peptide produce changes | decreased | decreased | increased considerably | decrease | did not produce changes | did not produce changes | increase in the production | absence of any increase in the production | increasing the production | completely cancelled the production | even greater increase in the production | even greater increase | greater number of lymphocytes | did not affect | reduction in the synthesis | increase in the synthesis | reduction in the synthesis |
